# Measurements published in the supplement of paper PMC12764529.
# ± gives the half width of the 95% confidence interval.
# Assay: folding stability dG unfold from trypsin proteolysis; higher = more stable
# Summary of the method: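 K50 was inferred by Bayesian fitting of sequencing counts obtained after protease digestion of designed mini-proteins. Unfolding free energy was derived by comparison with a sequence-predicted unfolded-state K50 and a shared folded-state K50, for each protease or both combined. The mini-proteins were under 80 residues, had no cysteine, were carried in a PA-tagged cDNA display construct, and were kept only if AlphaFold2 dimer inter-PAE exceeded 15.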
row,Sequence,folding stability dG unfold [kJ/mol]
1,SAGGLKIPVGSAEDALKAFEAIEEPVLVRTKDRKFVRELKLEDIKELVEKGVEFEFVLPSELPEEERKESAG [r5_677_TrMRF],2.4 ± 0.293
2,SAGGSAGGSAMKVSTTPVTLPNGESATLETLPDGTKVLKVGDKYIVVYPSGEVKEVPLEELLSAGGSAGGSA [r18_379_JUSTAS],6 ± 0.251
3,SGLLEKFLKEAEEWIKKLGLKVKPGEKVEIPIPFENNLIAKIEFYPGEKIIKVVLIGENKPVEYKFKIEKSA [r9_426_TrMRF],6.41 ± 0.669
4,SAGGSAGGSMRTITYEFPPGTTKEEVIEKVKELAKKEGLPIEKIESITEDPETGTYTVTVVVKSAGGSAGGS [r12_131_JUSTAS],17.6 ± 1.76
5,SAGGSAGGSAGGSMATITPEGDKYLVTITNPDGSTTTKEFDSLEEVKKLPSSYPIEFSDSAGGSAGGSAGGS [r4_447_JUSTAS],8.83 ± 0.272
6,SAGGKKKKTIVIVLEVSEEEAEKIIEALKKELEKKGFKIEKIEVRKVPDKPMVIVTIKLENGEELTFISAGG [r13_421_TrROS_Hall],8.23 ± 0.218
7,SAGSIEAAVEALEKELREKGYKVSVELVETDPSDPNRLNLVIRVTVEGFSPESKPLGKKEETYVIEGGSAGG [r19_418_JUSTAS],4.67 ± 0.13
8,SAGGSAGGSAGGMSSTVSLSTSFLPNGEKVVTTTTTFTDSSTTTTTTTTTTVALPPPSVVSAGGSAGGSAGG [r7_495_JUSTAS],4.76 ± 0.314
9,SAGGSKVTLEVNEDGTVTLTVTRPDGKKVTLTITKNEDGTYTIRDEETGKTITVPAGMSIEELLKASAGGSA [r2_338_TrROS_Hall],15.5 ± 0.502
10,SAGGSAGGSPEVLASFPLKDGSVVIVARRPGEIRVLVVKSSDLENIPELKDIKVFPTFGDDPVSAGGSAGGS [r12_343_TrMRF],4.31 ± 0.172
11,SAGGSAGGSAFIRAEYKLPENKVLEIEIPVPESVLKKMSIEEVKELFKKLGLPDDVKIEFYDESAGGSAGGS [r12_742_TrMRF],5.98 ± 0.172
12,SAGGFTIEFPLPPGESPDEIKDEIMDMVRPIADEHGFKNVKIPITNVRWQPPGRRRFTINIEIKFPGSAGGS [r8_184_TrROS],3.03 ± 0.669
13,SAIRIEEITIDPEYGVITITFDYPMPPGAEKIKFKIFIDGFKIKEIEYEVDPENGWVRMTLTIRIPKDASAG [r14_244_TrROS],17.1 ± 1.17
14,SAGGSAGGSMKIKVEVEMEKVKDPKKKGEYIYKMKIKKVEIELSEEEKEKLKELAEKLGIEVESAGGSAGGS [r12_249_TrROS_Hall],5.95 ± 0.276
15,SAGGSVVTTTFTYPDGTVVTTTTTPRPETLLTTTTTTTFYPDKPVKVAPGKEVVTTVTTTTTTVTPAASAGG [r13_780_JUSTAS],1.58 ± 0.126
16,SAGGMTIEKEDGKYRITITINGKTYTFTIPKELENKTEEEIAAELAAELAEKFGLKEITEIKIEKVPSAGGS [r8_402_TrROS_Hall],9.98 ± 0.402

row,Sequence,folding stability dG unfold [kJ/mol]
1,SAGKKVTILIVVPETEEEAKKLAEELAKELAEKTGLEKVEVKVVPKGMTLEQLKELAKENNVDLVILVSAGG [r19_89_TrROS_Hall],13.5 ± 0.879
2,SAGGSAMVRLPDGTLVIDVKLPEDRPDAKVTVTVLEDGSPVGSVDVNTGKVTISVSPGVSVSITVESAGGSA [r15_180_JUSTAS],8.86 ± 0.213
3,SAGGPMPPGQKRTVTIDLEYNPENGGYRVRAYSPGGKPIEEFPFPRDNLEEFAEEFANKGVDYVEIEPSAGG [r13_765_TrROS],-0.908 ± 0.795
4,SAAVPSDLTLTTLETKKEKFDDNEYTVVKSVLLRPGAPGATVTEYTTVYKGDKVVETKPSERTVSPALLSAG [r14_651_JUSTAS],-3.75 ± 1.13
5,SAGGMPAKAVTTKLPDGTDRITVTTVGSGKSATIPVPAGELKVIEIEEGEETLSVSFVEVGPDNPELGSAGG [r13_122_TrMRF],-1.78 ± 0.184
6,SAGGMLTLTDPETGVPYTGTPVSTTTTTVVLTTPDGTPVETVTVTVTTYEFTAPDGTPVTLTETTGLSAGGS [r8_214_JUSTAS],7.32 ± 0.297
7,SAGGSAGGSAGGMEKVTEVKPVATLPNGTVVTETLVTYTAPNGPEIGEEVVLTEDPVPKSAGGSAGGSAGGS [r10_941_JUSTAS],-3.94 ± 0.92
8,SAGGSAGGSWDRIKDALRKYGFPPENVKIEFETYPNGNMNVMIRHNGEQIPRNRINKAIQELMSAGGSAGGS [r12_175_TrROS],5.33 ± 0.146
9,MVLDAGISRKDFINNKPIKVETALKKLAEILGGPNFKPKVKPSKKDYLVAVIELPDGRKLLLKDDKDIKISS [r1_168_TrMRF],2.15 ± 0.502
10,SAGGSAGGSAEYIVVNSDEQLKALKELGGVKEVERKENFVVVEFPDIPPELREKLLEVIKESAGGSAGGSAG [r3_398_TrMRF],-0.265 ± 0.628
11,SAGGSAKITIEYDPETGTITIKVELTNEDNGKKVTKEYEIKVDGKLIRIKIDANTGEIVEIEVLPPSAGGSA [r2_331_TrROS_Hall],14.7 ± 0.711
12,SAGGSAKTIKIWIPVKGMTPEMLEEIARDILEELGMKVDIEPHPGDGYIEVTFKLPGKDIEIIIPWSAGGSA [r15_168_TrROS],8.53 ± 0.259
13,SKTYTAEEIKKLFPNIKKVEVKDGKVRLTVENENGEKFEIEITFEAPKPEPEVEEEVEKKKEEELSEEDLSA [r9_427_TrROS_Hall],5.35 ± 0.255
14,SAMKETEIPDPVTGNTYTVIDFDDATVVIKNYPDSLTITIIPPPSNTSTTIPMKPGEEEKVLKELGIPPSAG [r14_4_JUSTAS],2.47 ± 0.364
15,SAGMVEVSVTVSPRADGTITVTITLTKTFPVKDSKGNLYLETTTKTVTVPVTSLEEAPVIVKEVIDKLSAGG [r19_218_JUSTAS],16 ± 0.795
16,SAGGSAGGMVTSTDPATGIVYSLDPTTGVWSAQTVTLPPITIPVSEVPELLKALPPGTPILVLASAGGSAGG [r6_104_JUSTAS],4.22 ± 0.0669
